Data published in patent US20110171312A1, “MODIFIED THERAPEUTIC PEPTIDES, METHODS OF THEIR PREPARATION AND USE” (Nektar Therapeutics, priority 2008, published 2011).
Where two headings read alike, the source gives them in different places.

Key:
[1] = Quick release test of releasable PEG-insulin conjugate; format: physicochemical; details: 100 mM HEPES, pH 8.66, 50° C., approximately 24 hours; gel electrophoresis
Description: The pH was adjusted to 8.66 with 11.0 μL 2 M NaOH. Incubated solution at 50° C. for approximately 24 hours. […] This is slightly lower than the theoretical content of 22.5%. […] Peptide mapping was performed to determine which residue on insulin was modified. […] The purity of the conjugate was 91% mono-conjugate as determined by reverse phase HPLC.

[2] = 100 mM acetic acid
beagle dogs [3] = assay: PK/PD after IV dosing in dogs (Example 26); details: for CMAX: baseline corrected
Description: (§1) The compounds were prepared in accordance with Examples 16 and 18.
(§2) 6 Beagle dogs (˜7-10 kg) were anesthetized in both the IV and IH arms of this study for consistency. Dogs were then given 0.1 mg/kg acepromazine subcutaneously ˜15 minutes prior to 1-5% isoflurane mask induction. Once the appropriate plane of anesthesia was achieved, the pre-shaved neck of the dog was installed with an 18-20 G Abbocath intravenous catheter in the right or left jugular vein and pre-dose sampling was taken. This catheter was used for all blood samplings other than the later time points (16, 20 and 24 hour). Subsequent samples were taken from the cephalic veins.
The test and control articles were administered by bolus intravenous (IV) injection of a volume of 300 μl into the left cephalic vein using a 22 G 1 inch 1 mL tuberculin syringe.
(§3) Whole blood was used for the glucose measurements. EDTA-anticoagulated plasma was used for compound quantitation assays.
(§4) Quantitation of test and control articles for PK analysis was made with a radio-immuno assay (RIA) conducted at Linco Research, St-Charles, Mo. […] This antiserum was used as the basis of an RIA assay which was then qualified with respect to accuracy, precision, sensitivity, and dilutional linearity. The working range of this assay was 0.15-5 ng/ml. Samples exceeding the upper boundary of this range were diluted in a pool of charcoal-stripped canine plasma.

beagle dogs [4] = details: glucose clamp, powder inhalation (FIG. 13a)
Description: The glucose clamp technique involved the continuous infusion of a 50% glucose solution at a rate such that normal serum glucose values were maintained throughout the experiment (e.g., normal range is 80-100 mg/dl).
Glucagon was also infused to maintain normal serum physiologic concentrations. […] Blood was withdrawn from an indwelling catheter over a 10-hour period.

beagle dogs [5] = assay: PK/PD after IH (powder inhalation) dosing in dogs (Example 26); details: for Effect/mg Dosed: AUEC per mg of IH lung dose; for Effect (Glucose Suppression AUEC): lung dose 0.34, 0.6, 2 mg
Description: as §1, §2
The formulated control and test articles were delivered by inhalation (IH) via an endotracheal (ET) tube. Ventilator stroke volume was set empirically for each dog to achieve a Peak Mouth Pressure (PMP) of 20-25 cm H2O. A digital manometer (Dwyer Instruments, Michigan City, Ind.) was connected to the ET tube/“Y” connector to monitor PMP. Each blister pack (BP) was delivered with 2 full breathing cycles. No more than 3 BPs were administered during one apneic period. If required to achieve the target administered dose, a second apneic period was induced after an interval of 2 minutes of spontaneous breathing.
Total administered powder as well as estimated inhaled total lung dose were reported.
as §3, §4
To calculate the overall glucose suppression, glucose levels were normalized by the equation:
GlucoseSuppression(t)=PredoseGlucoseConcentration−Glucose(t)
The glucose suppression-time profiles were integrated using linear-trapezoidal rule to calculate the area under the effect curve (AUEC).

Sprague-Dawley rats [6] = assay: Dose determination and PK/PD after intratracheal instillation (Example 25); format: in vivo, rat; details: intratracheal
Description: A spectrometric measurement of compound concentration was also made.
Intratracheal Instillation (IT) was conducted as follows.
Sample Collection was performed as follows.
The glucose monitoring was conducted as follows.
The experimental protocol was modified for the analysis of the acetylated compounds. This resulted from the intent to use LC/MS-MS for the quantitation of compound concentrations in plasma. This analytical technique requires a larger volume of plasma to permit concentration of the sample and achieve the requisite increase in sensitivity. […] The protocol was therefore modified to increase the number of animals by two-fold and split the samples between these two cohorts.
To explore the data further, the PK profiles after IT doses were deconvoluted using IV PK parameters using the Wagner Nelson deconvolution procedure, to generate the cumulative absorption profile (FIG. 32).

Sprague-Dawley rats [7] = details: rats, intravenous
Description: The first phase established a dose of the compound required to achieve a target blood glucose reduction. This target blood glucose reduction was chosen to be the minimum reduction that is clearly recognizable as different from the resting blood glucose concentration.
The second phase examined the pharmacokinetics/pharmacodynamics of the molecule when administered to rats at the selected dose over an observation time sufficient for the glucose to return to baseline.
These experiments were conducted on male adult Sprague-Dawley rats of approximately 0.30-0.40 kg. Animals were obtained pre-cannulated with a jugular vein catheter (JVC) for blood sampling and, in the case of IV administration, and additional femoral vein catheter (FVC).
Intravenous administration of compounds was made via a femoral catheter in a volume of 300 μl.
Sample Collection was performed as follows. Blood samples of approximately 0.50 mL were collected from the JVC using a 1 mL syringe at each time point. A new syringe was used for each time point along with precautions to prevent contamination and carry-over.
The glucose monitoring was conducted as follows. Approximately 20 μL of whole blood was touched to the end of the glucose test strip of 2 Glucometer Elite glucose monitors for a duplicate determination of blood glucose concentrations. If there was a discrepancy of greater than 5 mg/dl, a third reading was taken.
The sample for compound quantitation in plasma, which served as basis for the PK analysis, was collected and processed as follows. The volume of blood remaining after the glucose measurement (˜480 μL) was anticoagulated with K2 EDTA and centrifuged to recover plasma. The plasma was collected and stored at −80° C. until analysis.

[8] = 14.3/(14.3 + 0.2) * 100%
Description: Concentrations of collected samples were determined using UV spectroscopy, while the integrity analysis of the collected protein was evaluated by HPLC.

[9] = dogs, IV, insulin 0.027, 2K 0.058, 5K 0.084 mg/dog, mean
[10] = dog, in vivo, inhaled or intranasal

Substance: G2-PEG2-FMOC-NHS 40K insulin: Example 21: releasable mono-conjugate of insulin with G2-PEG2-FMOC-NHS 40K, site specific (B1)
- release of insulin from the PEG [1]: Complete release

Substance: Insulin: unmodified human insulin used as control and starting material [reference compound]
- solubility ([2]; pH 4): ~5000 µg/mL
- solubility ([2]; pH 4, listed as insulin): up to 5 mg/ml
- solubility ([2]; pH 5): less than 1 mg/ml
- AUC0-LAST (beagle dogs [3]; [9]): 1.822 ng·h/mL
- CMAX (beagle dogs [3]; [9]): 9.1 ng/mL
- CMAX (beagle dogs [3]; dogs, IV, insulin 0.027, 2K 0.058, 5K 0.084 mg/dog, mean, listed as INSULIN): 9.117 ng/mL
- duration for which glucose infusion was necessary (beagle dogs [4]): 300 min
- time of last quantifiable sample (beagle dogs [5]; dogs, IH, 0.34 mg/dog): 2 h
- Effect/mg Dosed (beagle dogs [5]; dogs, IH): 156
- Effect (Glucose Suppression AUEC) (beagle dogs [5]; dogs, IH): 53
- AUC0-LAST (beagle dogs [5]; dogs, IH, lung dose insulin 0.34, 2K 0.60, 5K 2.0 mg/dog, mean): 1.538 ng·h/mL
- CMAX (beagle dogs [5]; dogs, IH, lung dose insulin 0.34, 2K 0.60, 5K 2.0 mg/dog, mean, baseline corrected): 1.567 ng/mL
- calculated IH bioavailability (beagle dogs [5]; dogs, powder after the ET tube, relative to IV): about 6%

Substance: di-N^αA1,N^εB29-(acetyl)-N^αB1-{3-[methoxy(ethoxy)5K]propionyl}insulin [PEG5000-B1 Di-acetylated insulin]
- Cmin (minimum blood glucose concentration) (Sprague-Dawley rats [6]; 520 μg/animal (Table 7)): 58 ± 11 mg/dL
- Tmin (time to Cmin) (Sprague-Dawley rats [6]; 520 μg/animal (Table 7)): 7.1 ± 6.6 h
- time up to which blood glucose is still suppressed (not back to baseline) (Sprague-Dawley rats [6]; selected dose): at least 12 hrs
- T1/2 (beagle dogs [3]; beagle, dog, in vivo, iv): 0.755 h
- T1/2 (beagle dogs [3]; dog, in vivo, iv): about 0.76 HR
- TMAX (beagle dogs [3]; dog, in vivo, iv): 4.8 min
- central volume of distribution (Vc) (beagle dogs [3]; dog, in vivo, iv): about 115 mL/kg
- overall glucose suppression versus Insulin (beagle dogs [3]; dogs, IV): overall glucose suppressions were similar in terms of maximum suppression and duration of action
- dose adequate to reduce blood glucose to the target (40-60 mg/dl) (Sprague-Dawley rats [7]; insulin mass): 20 μg/rat
- group mean Cmin (blood glucose nadir), definitive leg (Sprague-Dawley rats [7]; 20 μg/rat (5K di-acetylated), 10 μg/rat (2K di-acetylated)): 54 mg/dL
- % Collected as aerosol [8]: 98%^1
- T1/2 (beagle dogs [5]; dog, in vivo): about 15 HR
- T1/2, range across dogs (beagle dogs [5]; dog, in vivo): 6.6 to 51 h
- TMAX (beagle dogs [5]; dog, in vivo): about 2.5 HR
- Tmax, range across dogs (beagle dogs [5]; dog, in vivo): 1 to 8 h
- T1/2 (beagle dogs [5]; [10]): 15.045 h
- calculated IH bioavailability (beagle dogs [5]; [10]): about 36%
- duration of glucose suppression versus Insulin (beagle dogs [5]; dogs, IH): significantly increased
- Effect/mg Dosed (beagle dogs [5]; dogs, IH): 179
- Effect (Glucose Suppression AUEC) (beagle dogs [5]; dogs, IH): 358
